Consider 94 variants from the supplement of paper PMC10567573.

The chains are these.
B1: TPRG1 (parent)
chain: ETIQGFWLLTKIDHWNNEKERILL
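Further: lentivirally expressed fusions sorted by FACS into six bins by GFP to DsRed ratio, PSI derived from sequencing read proportions per bin multiplied by bin number.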

The variants in the data set derive from B1. As to the kind of experiment: protein stability index of a GFP-peptide fusion (GPS, HEK-293T) (PSI 1-6); higher = more stable. The note with it: c terminus: a fixed tail appended.
For the variant ETIQGFRLLTKIDHWNNEKERILL [W7R], the protein stability index turned out to be 2.23.
ETIQGFDLLTKIDHWNNEKERILL [W7D]: the protein stability index was 2.25.
With ETIQGFQLLTKIDHWNNEKERILL [W7Q] the figure was 1.83; with ETIQGFLLLTKIDHWNNEKERILL [W7L], 2.08; with ETIQGFGLLTKIDHWNNEKERILL [W7G], 2.31.
With ETIQGFELLTKIDHWNNEKERILL [W7E] the figure was 1.93.
The same measure for ETIQGFMLLTKIDHWNNEKERILL [W7M]: 3.58.
As for ETIQGFTLLTKIDHWNNEKERILL [W7T], the protein stability index came to 1.51.
For the variant ETIQGFHLLTKIDHWNNEKERILL [W7H], the protein stability index worked out at 1.04.
With ETIQGFALLTKIDHWNNEKERILL [W7A] the figure was 1.91.
The same measure for ETIQGFNLLTKIDHWNNEKERILL [W7N]: 2.18; for ETIQGFVLLTKIDHWNNEKERILL [W7V]: 3.28.
With ETIQGFKLLTKIDHWNNEKERILL [W7K], the protein stability index was 1.86.
The same measure for ETIQGFSLLTKIDHWNNEKERILL [W7S]: 2.1; for ETSQGFWLLTKIDHWNNEKERILL [I3S]: 1.28.
The same measure for ETLQGFWLLTKIDHWNNEKERILL [I3L]: 1.53; for ETYQGFWLLTKIDHWNNEKERILL [I3Y]: 2.55.
With ETPQGFWLLTKIDHWNNEKERILL [I3P] the figure was 2.05; with ETRQGFWLLTKIDHWNNEKERILL [I3R], 1.88; with ETNQGFWLLTKIDHWNNEKERILL [I3N], 1.71.
For the variant ETEQGFWLLTKIDHWNNEKERILL [I3E], the protein stability index stood at 2.04.
Regarding ETGQGFWLLTKIDHWNNEKERILL [I3G], the protein stability index was 2.14.
With ETQQGFWLLTKIDHWNNEKERILL [I3Q] the figure was 1.99; with ETTQGFWLLTKIDHWNNEKERILL [I3T], 2.18; with ETVQGFWLLTKIDHWNNEKERILL [I3V], 3.9.
The same measure for ETCQGFWLLTKIDHWNNEKERILL [I3C]: 2.25; for ETDQGFWLLTKIDHWNNEKERILL [I3D]: 1.39.
With ETIQLFWLLTKIDHWNNEKERILL [G5L] the figure was 1.38.
As for ETIQWFWLLTKIDHWNNEKERILL [G5W], the protein stability index was 3.06.
The same measure for ETIQYFWLLTKIDHWNNEKERILL [G5Y]: 2.95; for ETIQCFWLLTKIDHWNNEKERILL [G5C]: 3.97; for ETIQIFWLLTKIDHWNNEKERILL [G5I]: 1.69.
With ETIQQFWLLTKIDHWNNEKERILL [G5Q] the figure was 1.98; with ETIQPFWLLTKIDHWNNEKERILL [G5P], 2.33.
With ETIQKFWLLTKIDHWNNEKERILL [G5K], the protein stability index is 2.04.
With ETIQSFWLLTKIDHWNNEKERILL [G5S] the figure was 2; with ETIQHFWLLTKIDHWNNEKERILL [G5H], 2.36; with ETIQGFWLLTKADHWNNEKERILL [I12A], 3.59.
The same measure for ETIQGFWLLTKKDHWNNEKERILL [I12K]: 2.07; for ETIQGFWLLTKEDHWNNEKERILL [I12E]: 2.55.
The same measure for ETIQGFWLLTKCDHWNNEKERILL [I12C]: 2.08.
ETIQGFWLLTKHDHWNNEKERILL [I12H]: the protein stability index was found to be 1.9.
ETIQGFWLLTKMDHWNNEKERILL [I12M]: the protein stability index worked out at 3.11.
The same measure for ETIQGFWLLTKGDHWNNEKERILL [I12G]: 1.13; for ETIQGEWLLTKIDHWNNEKERILL [F6E]: 2.25.
The same measure for ETIQGSWLLTKIDHWNNEKERILL [F6S]: 2.37.
For ETIQGDWLLTKIDHWNNEKERILL [F6D], the protein stability index worked out at 1.72.
With ETIQGCWLLTKIDHWNNEKERILL [F6C] the figure was 3.16; with ETIQGGWLLTKIDHWNNEKERILL [F6G], 1.97; with ETIQGQWLLTKIDHWNNEKERILL [F6Q], 1.91.
With ETIQGYWLLTKIDHWNNEKERILL [F6Y] the figure was 2.51.
With ETIQGVWLLTKIDHWNNEKERILL [F6V] the figure was 2.36; with ETIQGMWLLTKIDHWNNEKERILL [F6M], 1.48.
For ETIQGTWLLTKIDHWNNEKERILL [F6T], the protein stability index was 2.69.
With ETIQGKWLLTKIDHWNNEKERILL [F6K] the figure was 1.3.
The same measure for ETIQGHWLLTKIDHWNNEKERILL [F6H]: 1.94; for ETIQGNWLLTKIDHWNNEKERILL [F6N]: 2.11; for ETIQGPWLLTKIDHWNNEKERILL [F6P]: 1.74.
The same measure for ETIQGRWLLTKIDHWNNEKERILL [F6R]: 1.91; for ETIQGWWLLTKIDHWNNEKERILL [F6W]: 1.12; for VTIQGFWLLTKIDHWNNEKERILL [E1V]: 4.74.
Regarding STIQGFWLLTKIDHWNNEKERILL [E1S], the protein stability index came out at 2.85.
The same measure for HTIQGFWLLTKIDHWNNEKERILL [E1H]: 2.48; for TTIQGFWLLTKIDHWNNEKERILL [E1T]: 1.82; for QTIQGFWLLTKIDHWNNEKERILL [E1Q]: 3.37.
With LTIQGFWLLTKIDHWNNEKERILL [E1L] the figure was 4.7; with PTIQGFWLLTKIDHWNNEKERILL [E1P], 2.65; with ITIQGFWLLTKIDHWNNEKERILL [E1I], 3.09.
The same measure for ATIQGFWLLTKIDHWNNEKERILL [E1A]: 2.75; for DTIQGFWLLTKIDHWNNEKERILL [E1D]: 2.8; for NTIQGFWLLTKIDHWNNEKERILL [E1N]: 2.13.
ETIQGFWLLTDIDHWNNEKERILL [K11D]: the protein stability index was 1.93.
The same measure for ETIQGFWLLTLIDHWNNEKERILL [K11L]: 1.49; for ETIQGFWLLTPIDHWNNEKERILL [K11P]: 2.92; for ETIQGFWLLTYIDHWNNEKERILL [K11Y]: 4.47.
The same measure for ETIQGFWLLTHIDHWNNEKERILL [K11H]: 1.76; for ETIQGFWLLTAIDHWNNEKERILL [K11A]: 1.85.
With ETIQGFWLLTFIDHWNNEKERILL [K11F] the figure was 3.4; with ETIQGFWLLTGIDHWNNEKERILL [K11G], 2.08; with ETIQGFWLLTIIDHWNNEKERILL [K11I], 2.32.
With ETIQGFWLLTSIDHWNNEKERILL [K11S], the protein stability index stood at 1.71.
On to ETIQGFWLLTRIDHWNNEKERILL [K11R], for which the protein stability index came to 1.54.
The same measure for ETIQGFWLLTWIDHWNNEKERILL [K11W]: 2.02; for EQIQGFWLLTKIDHWNNEKERILL [T2Q]: 2.82.
With ERIQGFWLLTKIDHWNNEKERILL [T2R] the figure was 3.03; with EYIQGFWLLTKIDHWNNEKERILL [T2Y], 3.19; with ENIQGFWLLTKIDHWNNEKERILL [T2N], 2.16.
The same measure for ELIQGFWLLTKIDHWNNEKERILL [T2L]: 1.67.
As to EDIQGFWLLTKIDHWNNEKERILL [T2D], the protein stability index amounted to 1.91.
With ECIQGFWLLTKIDHWNNEKERILL [T2C] the figure was 1.55.
For the variant EHIQGFWLLTKIDHWNNEKERILL [T2H], the protein stability index is 1.67.
The same measure for EEIQGFWLLTKIDHWNNEKERILL [T2E]: 2.51; for EPIQGFWLLTKIDHWNNEKERILL [T2P]: 1.61.
The same measure for EKIQGFWLLTKIDHWNNEKERILL [T2K]: 2.22.
